Laboratory results published in US20210395725A1 (EVERCYTE, published 2021).

Tests used:
[1] = biological target: T1, streptavidin-Alexafluor 647 (UniProt P22629 37-163, limits assumed, Alexa Fluor 647 conjugate); test: yeast display flow cytometry, secondary reagent only
T1 construct: Secondary detection reagent, tested alone as a control; also called secondary reagent; 2nd

[2] = biological target: T1, streptavidin-Alexafluor 647; test: yeast display flow cytometry; secondary reagent only
mouse EGFR-Fc [3] = biological target: T2, mouse EGFR-Fc (mouse, UniProt Q01279 25-647, limits assumed, biotinylated with EZ-Link Sulfo-NHS-LC-LC-Biotin); test: yeast display flow cytometry, clone 9
T2 construct: Bought; also called Mouse EGFR-Fc-biotin; biotinylated mouse EGFR-Fc

mouse EGFR-Fc [4] = biological target: T2, mouse EGFR-Fc; test: yeast display flow cytometry; mouse EGFR-Fc + streptavidin-Alexafluor 647
mouse EGFR-Fc [5] = biological target: T2, mouse EGFR-Fc; test: HEK293-6E cell display flow cytometry; 500 nM biotinylated antigen + streptavidin-Alexa Fluor 647; secondary only 2.67
Experimental: (§1) 1×10⁵ cells have been blocked in 2% BSA-PBS for 30 min on ice and then stained with each 500 nM biotinylated human EGFR-Fc, biotinylated human Her2/neu-Fc and biotinylated mouse EGFR-Fc for 30 min on ice in 2% BSA-PBS. […] Cells were then centrifuged at 300 g, 5 min at 4° C. and re-suspended in 200 μl ice-cold PBS. […] The fluorescence has been determined with Guava EasyCyte flow cytometer.

human EGFR-Fc [6] = biological target: T3, human EGFR-Fc (human, UniProt P00533 25-645, biotinylated with EZ-Link Sulfo-NHS-LC-LC-Biotin in most assays); test: as above
T3 construct: Bought; also called Human EGFR-Fc-biotin; EGFR-Fc-biotin
Experimental: as §1

human Her2/neu-Fc [7] = biological target: T4, human Her2/neu-Fc (human, UniProt P04626 23-652, biotinylated with EZ-Link Sulfo-NHS-LC-LC-Biotin); test: as above
T4 construct: Bought; also called Human Her2/neu-Fc-biotin; biotinylated human Her2/neu-Fc
Experimental: as §1

mouse EGFR-Fc [8] = biological target: T2, mouse EGFR-Fc; test: flow cytometry, HEK293-6E cell display (pDisplay)
Experimental: (§2) 1×10⁵ cells have been blocked in 2% BSA-PBS for 30 min on ice and then stained with each 500 nM biotinylated human EGFR-Fc, biotinylated human Her2/neu-Fc and biotinylated mouse EGFR-Fc for 30 min on ice in 2% BSA-PBS. […] Cells were then centrifuged at 300 g, 5 min at 4° C. and resuspended in 200 μl ice-cold PBS. […] The fluorescence has been determined with Guava EasyCyte flow cytometer.
as §1

human EGFR-Fc [9] = biological target: T3, human EGFR-Fc; test: flow cytometry, HEK293-6E cell display (pDisplay)
Experimental: as §2, §1

human placental laminin = biological target: T5, human placental laminin (human); test: ELISA; biotinylated laminin 5 µg/ml on streptavidin plate, neat eluted His-tagged protein, anti-pentaHis-HRP
T5 construct: Bought; also called human laminin; laminin-biotin
Experimental: Neat eluted proteins were tested for binding to their cognate antigen and BSA as a control antigen. Streptavidin-activated plates (Immobilizer, NUNC) were coated with biotinylated laminin at 5 μg/ml in PBS for 30 min at RT and blocked with 4% BSA-PBS for 1 h at RT. Eluted proteins were added in 2% BSA-PBS and allowed to bind for 1 h at RT. […] The reaction was stopped with the addition of H₂SO₄ and the absorbance read at 450/620 nm (Table 15).

mouse EGFR-Fc [10] = biological target: T2, mouse EGFR-Fc; test: HEK293-6E cell display flow cytometry; 500 nM biotinylated antigen + streptavidin-Alexa Fluor 647; secondary only 14.11 (same values as in Table 12)
Experimental: as §1

human EGFR-Fc [11] = biological target: T3, human EGFR-Fc; test: as above
Experimental: as §1

human Her2/neu-Fc [12] = biological target: T4, human Her2/neu-Fc; test: as above
Experimental: as §1

mouse EGFR-Fc [13] = biological target: T2, mouse EGFR-Fc; test: HEK293-6E cell display flow cytometry; 500 nM biotinylated antigen + streptavidin-Alexa Fluor 647; secondary only 14.11
Experimental: as §1

human EGFR-Fc [14] = biological target: T3, human EGFR-Fc; test: as above
Experimental: as §1

human Her2/neu-Fc [15] = biological target: T4, human Her2/neu-Fc; test: as above
Experimental: as §1

mouse EGFR-Fc [16] = biological target: T2, mouse EGFR-Fc; test: HEK293-6E cell display flow cytometry; 500 nM biotinylated antigen + streptavidin-Alexa Fluor 647; secondary only 5.82
Experimental: as §2

human EGFR-Fc [17] = biological target: T3, human EGFR-Fc; test: as above
Experimental: as §2

human Her2/neu-Fc [18] = biological target: T4, human Her2/neu-Fc; test: as above
Experimental: as §2

human Her2/neu-Fc [19] = biological target: T4, human Her2/neu-Fc; test: flow cytometry, HEK293-6E cell display (pDisplay)
Experimental: as §2, §1

T1 sequence (P22629 37-163 limits assumed): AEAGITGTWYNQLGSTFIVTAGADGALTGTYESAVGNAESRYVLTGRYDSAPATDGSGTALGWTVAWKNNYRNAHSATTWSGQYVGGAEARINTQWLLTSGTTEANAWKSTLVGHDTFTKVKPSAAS

B1: CD81 LEL library 1 variant RAN / IWRARRRRS (yeast clones 3, 13, 21 of the mouse EGFR-Fc selection) (designed binder)
chain: FVNKDQIAKDVKQFYDQALQQAVVDDDANNAKAVVKTFHETLDCCGSRANTALTTSVLKNNLCPSGSNIWRARRRRSCHQKIDDLFSGK
notes: also called clone 3; clone 13
[1]
  binding result: no binding

B2: CD81 LEL library 1 variant SSS / SRRWRHRIA (yeast clones 6, 18 of the mouse EGFR-Fc selection) (designed binder)
chain: FVNKDQIAKDVKQFYDQALQQAVVDDDANNAKAVVKTFHETLDCCGSSSSTALTTSVLKNNLCPSGSNSRRWRHRIACHQKIDDLFSGK
notes: also called clone 6; clone 18
[1]
  binding result: no binding

B3: CD81 LEL library 1 variant VRR / RRPRKRTRS (yeast clones 1, 8, 15 of the mouse EGFR-Fc selection) (designed binder)
chain: FVNKDQIAKDVKQFYDQALQQAVVDDDANNAKAVVKTFHETLDCCGSVRRTALTTSVLKNNLCPSGSNRRPRKRTRSCHQKIDDLFSGK
notes: also called clone 1; clone 8
[1]
  binding result: no binding

B4: CD81 LEL library 1 variant ERL / RRSRRRVHD (yeast clones 2, 4, 7, 10, 11, 12, 14, 16, 17, 20, 22, 23 of the mouse EGFR-Fc selection) (designed binder)
chain: FVNKDQIAKDVKQFYDQALQQAVVDDDANNAKAVVKTFHETLDCCGSERLTALTTSVLKNNLCPSGSNRRSRRRVHDCHQKIDDLFSGK
notes: also called clone 2; clone 4
[1]
  binding result: no binding

B5: CD81 LEL library 1 variant SFS / RRFRKRPGD (yeast clones 5, 19 of the mouse EGFR-Fc selection) (designed binder)
chain: FVNKDQIAKDVKQFYDQALQQAVVDDDANNAKAVVKTFHETLDCCGSSFSTALTTSVLKNNLCPSGSNRRFRKRPGDCHQKIDDLFSGK
notes: also called clone 5; clone 19
[1]
  binding result: no binding

B6: CD81 LEL library 1 variant MGN / WWGRRFRVS (yeast clone 9 of the mouse EGFR-Fc selection) (designed binder)
chain: FVNKDQIAKDVKQFYDQALQQAVVDDDANNAKAVVKTFHETLDCCGSMGNTALTTSVLKNNLCPSGSNWWGRRFRVSCHQKIDDLFSGK
[2]
  median fluorescence: 14.6
Mouse EGFR-Fc [3]
  binding result: no binding
Mouse EGFR-Fc [4]
  median fluorescence: 11.8

B7: anti-Her2/neu directed CD81 LEL clone 81_H2_11 (designed binder)
chain: FVNKDQIAKDVKQFYDQALVNCCYTRAANNACAVVKTFHETLDCCGSSTHYVDTHCVLNRNLCPSGSNIISNLFKEDCHQKIDDLFSGK
notes: also called anti-Her2/neu clone
Mouse EGFR-Fc [5]
  % antigen binding cells: 5.68%
Human EGFR-Fc [6]
  % antigen binding cells: 5.16%
Human Her2/neu-Fc [7]
  % antigen binding cells: 44.2%
Mouse EGFR-Fc [8]
  binding result: no binding (tested: 500 nM)
Human EGFR-Fc [9]
  binding result: no binding (tested: 500 nM)

B8: laminin-binding CD81 LEL mutant L3A_LU1 (designed binder)
chain: FVNKDQIAKDVKQFYDQCLLWACSKRYKYNAKACVKTFHETLDCCGSSTMGNLTECVLIENLCPSGSNIISNLFKEDCHQKIDDLFSGK
Human placental laminin
  A450/620 (average): 1.7

B9: laminin-binding CD81 LEL mutant L3B_LU1_2 (designed binder)
chain: FVNKDQIAKDVKQFYDQCLKYACKQGDWENAKACVKTFHETLDCCGSSTVANMTRCVLPANLCPSGSNIISNLFKEDCHQKIDDLFSGK
Human placental laminin
  A450/620 (average): 1.32

B10: laminin-binding CD81 LEL mutant L2A_LU1 (designed binder)
chain: FVNKDQIAKDVKQFYDQALRECCNTFDANNACAVVKTFHETLDCCGSSTTHSSTGCVLFFNLCPSGSNIISNLFKEDCHQKIDDLFSGK
Human placental laminin
  A450/620 (average): 0.156

B11: wild-type human CD81 LEL (other)
chain: FVNKDQIAKDVKQFYDQALQQAVVDDDANNAKAVVKTFHETLDCCGSSTLTALTTSVLKNNLCPSGSNIISNLFKEDCHQKIDDLFSGK
notes: the formats are named in the assay field; The soluble form runs as a dimer in SEC; also called wild-type CD81 LEL; hCD81 LEL
Mouse EGFR-Fc [10]
  % antigen binding cells: 12.8%
Human EGFR-Fc [11]
  % antigen binding cells: 10.4%
Human Her2/neu-Fc [12]
  % antigen binding cells: 10.5%
Mouse EGFR-Fc [13]
  % antigen binding cells: 12.8%
Human EGFR-Fc [14]
  % antigen binding cells: 10.4%
Human Her2/neu-Fc [15]
  % antigen binding cells: 10.5%
Mouse EGFR-Fc [4]
  median fluorescence: 9.1

B12: EGFR-specific CD81 LEL binder L2B_EU1_1 (designed binder)
chain: FVNKDQIAKDVKQFYDQALWWCCVLYKANNACAVVKTFHETLDCCGSSTGRSHTACVLKGNLCPSGSNIISNLFKEDCHQKIDDLFSGK
notes: also called L2BE1_1
Mouse EGFR-Fc [16]
  % antigen binding cells: 89.3%
Human EGFR-Fc [17]
  % antigen binding cells: 71.1%
Human Her2/neu-Fc [18]
  % antigen binding cells: 8.17%
Human Her2/neu-Fc [19]
  binding result: no binding (tested: 500 nM)
